In doi:10.1101/183848 one finds Gag-ABCE1 PLA spots per cell (PLA spots per cell) data, which are given here for one substance.

This test has as its target ATP binding cassette protein E1 (ABCE1), endogenous in 293T/17 cells (human (endogenous in 293T/17)) (UniProt P61221). Put plainly: proximity ligation.

Substance “FIV Gag, wild type, expressed from the FIV pro- env- provirus (natural protein)” yielded a Gag-ABCE1 PLA spots per cell (PLA spots per cell) of 34.9.
